For one test, the target named is Adalimumab/TNF-α complex (human, UniProt P01375 77-233). Description: real time, label free interaction analysis, Attana A200, immobilized Adalimumab-TNF-α complex, monovalent.
A further test has as its target BSA (bovine, UniProt P02769). Description: ELISA: antigen coated at 5 µg/mL, Fab-FH at 2 µg/mL, HRP-labeled anti-His antibody, QuantaBlu. The method, then:
(§1) 5 μg/mL of each of the antigens were coated on a microtiter plate over night. […] Detection was performed using an HRP-labeled anti-His antibody and QuantaBlu fluorogenic peroxidase substrate.
(§2) Therefore 5 μg/mL of each of the antigens were coated on a microtiter plate over night. […] Detection was performed using an HRP-labeled anti-His antibody and QuantaBlu fluorogenic peroxidase substrate.
In general terms: In an ELISA, binding on a coated surface is turned into a signal by an enzyme label.

Another test has as its target T1, Bevacizumab.
T1 construct: not shown: the constant regions
The description is as above. How it is done:
as §1, §2

Test [1] addresses T2, Ustekinumab.
T2 construct: not shown: the constant regions
The description is as above. The method, then: as §1, §2

In test [2] the target is T3, Adalimumab.
T3 construct: not shown: the constant regions
Described as above. The method, then:
as §1, §2

Test [3] addresses T4, Rituximab.
T4 construct: Control antigen in the screening ELISA; also called Rituximab (IgG1kappa); not shown: the constant regions
The test is described as above. How it is done:
as §1, §2

Test [4] addresses T2, Ustekinumab. Description: ELISA: antigen coated at 5 µg/mL, HRP-conjugated AdaTNF#5-hIgG1 at 2 µg/mL in HiSpec buffer, QuantaBlu. The method, then: (§3) Antigens were coated at 5 μg/mL on a microtiter plate over night. […] Detection was performed using the QuantaBlu® fluorogenic peroxidase substrate. […] (FIG. 3)
For test [5], the target named is T3, Adalimumab. Described as above. The method, then: as §3
Test [6] deals with T4, Rituximab. The description is as above. The method, then:
as §3

T2 sequence (VH, as listed by the source): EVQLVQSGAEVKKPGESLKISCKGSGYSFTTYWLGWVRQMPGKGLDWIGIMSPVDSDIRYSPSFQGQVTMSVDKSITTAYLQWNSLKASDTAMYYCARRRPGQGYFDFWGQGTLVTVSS
T4 sequence (VH, as listed by the source, chain 1 of 2): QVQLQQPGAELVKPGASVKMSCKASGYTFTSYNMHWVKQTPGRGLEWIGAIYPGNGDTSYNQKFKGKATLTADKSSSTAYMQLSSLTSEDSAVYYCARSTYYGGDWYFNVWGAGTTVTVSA
T4 sequence (VL, as listed by the source, chain 2 of 2): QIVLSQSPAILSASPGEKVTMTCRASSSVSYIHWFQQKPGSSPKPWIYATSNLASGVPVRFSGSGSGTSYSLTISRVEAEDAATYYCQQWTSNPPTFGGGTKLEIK
T1 sequence (VH, as listed by the source): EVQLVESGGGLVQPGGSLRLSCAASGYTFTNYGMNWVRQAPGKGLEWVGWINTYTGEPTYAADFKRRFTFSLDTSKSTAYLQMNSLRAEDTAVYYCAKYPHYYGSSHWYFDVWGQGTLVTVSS
BSA, sequence (P02769 25-607 limits assumed): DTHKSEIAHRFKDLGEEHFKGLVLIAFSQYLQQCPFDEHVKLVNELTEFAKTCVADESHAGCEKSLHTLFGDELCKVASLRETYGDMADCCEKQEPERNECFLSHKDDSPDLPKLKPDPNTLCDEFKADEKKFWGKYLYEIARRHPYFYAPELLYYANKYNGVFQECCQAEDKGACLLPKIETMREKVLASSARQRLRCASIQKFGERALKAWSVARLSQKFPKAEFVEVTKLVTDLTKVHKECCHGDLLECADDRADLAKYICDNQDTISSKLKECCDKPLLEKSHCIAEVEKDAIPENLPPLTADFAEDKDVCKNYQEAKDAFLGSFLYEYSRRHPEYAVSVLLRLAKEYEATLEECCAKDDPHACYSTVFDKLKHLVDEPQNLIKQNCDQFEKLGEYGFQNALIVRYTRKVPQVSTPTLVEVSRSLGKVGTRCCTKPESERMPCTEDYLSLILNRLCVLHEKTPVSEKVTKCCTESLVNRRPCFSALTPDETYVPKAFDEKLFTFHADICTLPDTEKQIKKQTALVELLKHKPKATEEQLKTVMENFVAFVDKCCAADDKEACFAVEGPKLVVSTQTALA
Adalimumab/TNF-α complex, sequence (P01375 77-233, one chain of several): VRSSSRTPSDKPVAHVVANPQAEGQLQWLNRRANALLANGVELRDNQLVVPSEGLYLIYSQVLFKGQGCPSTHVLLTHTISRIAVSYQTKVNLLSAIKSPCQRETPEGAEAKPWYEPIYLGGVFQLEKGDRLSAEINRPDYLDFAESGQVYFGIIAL

B1: AdaTNF#5 (Fab, V domains shown)
VH: QVQLVQSGAEVKKPGSSVKVSCKASGGTFSTNAISWVRQAPGQGLEWMGGINPHLGHADYAQKFQGRVTITADESTSTAYMELSSLRSEDTAVYYCARGWYYIGSNPSMYPNYFDPWGQGTLVTVSS
VL: DIQMTQSPSSLSASVGDRVTITCRASQTISSYLNWYQQKPGKAPKLLIYTASNLQSGVPSRFSGSGSGTDFTLTISSLQPEDFATYYCQQVLHLPHTFGQGTKVEIKR
notes: HuCAL Fab in Fab-FH format, detected by an anti-His antibody; also called AdaTNb/F#5; anti-Adalimumab/TNF-α antibody in Fab-FH format
As a reminder, the Kd is the constant that tells how readily two partners part at equilibrium. A low value points to higher affinity. As for B1, in the test with Adalimumab/TNF-α complex, the Kd worked out at 67 nM. The binding result in the test with BSA, in the test with Bevacizumab, with Ustekinumab [1], in the test with Adalimumab [2] and with Rituximab [3] was “no binding (tested: 2 µg/mL)” throughout.

B2: AdaTNF#5-hIgG1 (antibody, V domains shown)
VH: B1 VH
VL: B1 VL
modifications: antibody conjugated to HRP, site not stated
notes: AdaTNF#5 converted into full length (bivalent) human IgG1, expressed in a human cell line, conjugated to HRP; also called anti-Adalimumab/TNF-α hIgG1 antibody AdaTNF#5 (conjugated to HRP); HRP-conjugated AdaTNF#5-hIgG1
In the case of B2, the binding result in the test with Ustekinumab [4], with Adalimumab [5] and in the test with Rituximab [6] was “no binding (tested: 2 µg/mL)” each time.

B3: AdaTNF#1 (Fab, V domains shown)
VH: QVQLVQSGAEVKKPGSSVKVSCKASGGTFSTYAISWVRQAPGQGLEWMGGIIPIFGTANYAQKFQGRVTITADESTSTAYMELSSLRSEDTAVYYCARDYFSSIGWVVYYGPMDYWGQGTLVTVSS
VL: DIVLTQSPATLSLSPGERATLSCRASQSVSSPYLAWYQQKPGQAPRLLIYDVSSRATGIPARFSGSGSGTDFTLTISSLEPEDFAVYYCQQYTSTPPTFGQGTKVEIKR
notes: HuCAL Fab in Fab-FH format, detected by an anti-His antibody; also called anti-Adalimumab/TNF-α antibody in Fab-FH format
For the molecule B3, the binding result in the test with BSA, in the test with Bevacizumab, with Ustekinumab [1], with Adalimumab [2] and with Rituximab [3] was “no binding (tested: 2 µg/mL)” throughout.

The values are drawn from US20150197579A1 (MorphoSys, published 2015).
